T1: human BCMA (human, UniProt Q02223 1-54, limits assumed)
T1 construct: also called B-cell maturation antigen; human BCMA polypeptide
T1 sequence: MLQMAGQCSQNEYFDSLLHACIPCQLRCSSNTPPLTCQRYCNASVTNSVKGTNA


Target: T1, human BCMA
Assay: CLIPS peptide epitope mapping (Pepscan)
Protocol: Epitopes recognized, e.g., specifically bound by exemplary anti-BCMA scFv clones, were determined based on full discontinuous epitope mapping by Chemical Linkage of Peptides onto Scaffolds (CLIPS; Pepscan Presto BV, Lelystad, The Netherlands; see, e.g., Timmerman et al., (2007) J. Mol. Recognit. 20: 283-329). […] In some aspects, such antibodies recognize a non-linear or linear epitope including residues of such peptide of SEQ ID NO: 160, and in some aspects recognize a non-linear epitope further including residues of CIPCQLR (set forth in SEQ ID NO:159), […] and/or SVTNSVK (set forth in SEQ ID NO:161).

Row | Binder | binding result
1 | BCMA-55-scFv (scFv, also called BCMA-55-scFV-mFc) scFv: QSALTQPASVSASPGQSIAISCTGTSSDVGWYQQHPGKAPKLMIYEDSKRPSGVSNRFSGSKSGNTASLTISGLQAEDEADYYCSSNTRSSTLVFGGGTKLTVLGSRGGGGSGGGGSGGGGSLEMAEVQLVQSGAEMKKPGASLKLSCKASGYTFIDYYVYWMRQAPGQGLESMGWINPNSGGTNYAQKFQGRVTMTRDTSISTAYMELSRLRSDDTAMYYCARSQRDGYMDYWGQGTLVTVSS | binds
2 | BCMA-26 scFv (scFv) scFv: EVQLVESGGGLVKPGGSLRLSCAASGFTFSDYYMSWIRQAPGKGLEWVSYISSSGSTIYYADSVKGRFTISRDNAKNSLYLQMNSLRAEDTAVYYCAKVDGPPSFDIWGQGTMVTVSSGGGGSGGGGSGGGGSSYVLTQPPSVSVAPGQTARITCGANNIGSKSVHWYQQKPGQAPMLVVYDDDDRPSGIPERFSGSNSGNTATLTISGVEAGDEADYFCHLWDRSRDHYVFGTGTKLTVL | binds
3 | BCMA-23 scFv (scFv) scFv: EVQLVESGGGLVKPGGSLRLSCAASGFTFSDYYMSWIRQAPGKGLEWVSYISSSGSTIYYADSVKGRFTISRDNAKNSLYLQMNSLRAEDTAVYYCAKVDGDYTEDYWGQGTLVTVSSGGGGSGGGGSGGGGSQSALTQPASVSGSPGQSITISCTGSSSDVGKYNLVSWYQQPPGKAPKLIIYDVNKRPSGVSNRFSGSKSGNTATLTISGLQGDDEADYYCSSYGGSRSYVFGTGTKVTVL | binds
4 | BCMA-52-scFv-mFc (Fc fusion, not shown: mFc portion named in the label) SYELTQPPSASGTPGQRVTMSCSGTSSNIGSHSVNWYQQLPGTAPKLLIYTNNQRPSGVPDRFSGSKSGTSASLAISGLQSEDEADYYCAAWDGSLNGLVFGGGTKLTVLGSRGGGGSGGGGSGGGGSLEMAEVQLVQSGAEVKKPGESLKISCKGSGYSFTSYWIGWVRQMPGKGLEWMGIIYPGDSDTRYSPSFQGHVTISADKSISTAYLQWSSLKASDTAMYYCARYSGSFDNWGQGTLVTVSS | binds
5 | BCMA-25 scFv (scFv) scFv: EVQLVQSGGGLVQPGRSLRLSCTASGFTFGDYAMSWFRQAPGKGLEWVGFIRSKAYGGTTEYAASVKGRFTISRDDSKSIAYLQMNSLKTEDTAVYYCAAWSAPTDYWGQGTLVTVSSGGGGSGGGGSGGGGSDIQMTQSPAFLSASVGDRVTVTCRASQGISNYLAWYQQKPGNAPRLLIYSASTLQSGVPSRFRGTGYGTEFSLTIDSLQPEDFATYYCQQSYTSRQTFGPGTRLDIK | binds

Reference: patent US20230149462A1 (JUNO THERAPEUTICS, published 2023)
